Assay results published in patent US20160060340A1.

Assays:
FOLR1-mycHis (human) [1] = molecular target: FOLR1-mycHis (human) (UniProt P15328); test: SPR (Biacore T100), antibody captured on CM5 chip, FOLR1-mycHis as analyte, single-cycle kinetics, 1:1 binding model
FOLR1-mycHis (human) [2] = molecular target: FOLR1-mycHis (human) (UniProt P15328); test: SPR as in Example 29, antibody captured, FOLR1-mycHis as analyte

Chain of FOLR1-mycHis (human) (P15328 25-233): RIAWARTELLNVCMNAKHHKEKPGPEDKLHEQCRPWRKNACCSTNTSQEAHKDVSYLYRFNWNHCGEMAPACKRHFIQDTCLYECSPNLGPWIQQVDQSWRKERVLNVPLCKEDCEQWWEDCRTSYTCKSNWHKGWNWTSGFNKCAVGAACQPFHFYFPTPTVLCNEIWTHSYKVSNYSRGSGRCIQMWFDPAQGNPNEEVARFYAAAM

| Kd (FOLR1-mycHis (human) [1]) [nM] | affinity as percent of that of HuRA15-7CTAcc antibody (FOLR1-mycHis (human) [2]) [%] | Substance |
| --- | --- | --- |
| 66 | – | LK26 antibody (GeneTex) |
| – | 1.1 | MORAb-003DF antibody |
| 92 | – | MOv18 antibody (ALEXIS BIO…) |
